Assay results as given in PMC5672941.

Biological target: SpyTag fused to an elastin-like polypeptide with a C-terminal cysteine
Experiment: core-shell assembly of protein-coated particles

SpyCatcher fused to an elastin-like polypeptide with a C-terminal cysteine (designed binder)
percent of the core aggregate surface occupied by green (shell) particles: 60%
